In the test the target is T1, B淋巴细胞刺激因子(BLyS)蛋白 (human, UniProt Q9Y275 134-285, biotinylated (生物素化, sites not stated)).
T1 construct: The protein was harvested from the culture supernatant, so it may be the soluble form; It was biotinylated for the ForteBio assay; also called BAFF; 抗原BLyS; not shown: His tag from vector p3457-his
The test is described as follows: ForteBio (BLI): biotinylated BLyS at 20 μg/ml loaded, B-11ScFv in 2-fold dilutions from 25 to 0.78125 μg/ml in PBS pH 7.4. In general terms: In BLI a coated tip is dipped into the sample, and binding shifts an interference pattern.

T1 sequence (Q9Y275 134-285): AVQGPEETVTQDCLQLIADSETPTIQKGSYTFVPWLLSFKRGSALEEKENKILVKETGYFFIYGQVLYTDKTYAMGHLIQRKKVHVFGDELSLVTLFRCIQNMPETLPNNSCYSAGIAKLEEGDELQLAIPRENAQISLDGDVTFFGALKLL

B1: 抗BLyS单链抗体B-11ScFv (scFv, V domains shown)
VH: EVQLQESGGGLVQPGGSLRLSCAASGFTFSRYWMLWVRQAPGKGLVWVSRINTDGSSTWYADSVKGRFTISRDNAKNTLYLQMNSLRAEDTAVYYCARDQDGVGATHDYWGQGTLVTVSS
notes: Secreted from 293E cells out of plasmid p3457B-11ScFv and purified on a nickel column, about 30 kDa; also called 11号ScFv; 抗人BLyS ScFv抗体; not shown: His tag from vector p3457his (Ni column purification, anti-His blot)
Usually Kd stands for the concentration at which binding is half-saturated. A high value points to weaker binding. The molecule B1 had a Kd of 3.08 nM.

The values above are taken from patent CN104628856A (INST RADIATION MED AMMS PLA; BEIJING C & N INTERNAT SCI …, dated 2015).
